Assay results: US20260132173A1 (JOON HAENG, published 2026)

Biological target: T1, human TLR5 expressed from p3xFlag-hTLR5 in HEK293T cells (human, UniProt O60602 21-858)
T1 construct: whole, on cells; In the reporter assays the receptor stood on transfected HEK293T cells; In the Co-IP it stood in the RIPA lysate of such cells and was pulled down with an anti-Flag antibody; also called Toll-like receptor 5; not shown: 3xFlag tag of plasmid p3xFlag-hTLR5
Experiment: Co-IP: 3xFlag-hTLR5 HEK293T lysate, anti-Flag pull-down, western blot with anti-Myc-HRP

T1 sequence (O60602 21-858): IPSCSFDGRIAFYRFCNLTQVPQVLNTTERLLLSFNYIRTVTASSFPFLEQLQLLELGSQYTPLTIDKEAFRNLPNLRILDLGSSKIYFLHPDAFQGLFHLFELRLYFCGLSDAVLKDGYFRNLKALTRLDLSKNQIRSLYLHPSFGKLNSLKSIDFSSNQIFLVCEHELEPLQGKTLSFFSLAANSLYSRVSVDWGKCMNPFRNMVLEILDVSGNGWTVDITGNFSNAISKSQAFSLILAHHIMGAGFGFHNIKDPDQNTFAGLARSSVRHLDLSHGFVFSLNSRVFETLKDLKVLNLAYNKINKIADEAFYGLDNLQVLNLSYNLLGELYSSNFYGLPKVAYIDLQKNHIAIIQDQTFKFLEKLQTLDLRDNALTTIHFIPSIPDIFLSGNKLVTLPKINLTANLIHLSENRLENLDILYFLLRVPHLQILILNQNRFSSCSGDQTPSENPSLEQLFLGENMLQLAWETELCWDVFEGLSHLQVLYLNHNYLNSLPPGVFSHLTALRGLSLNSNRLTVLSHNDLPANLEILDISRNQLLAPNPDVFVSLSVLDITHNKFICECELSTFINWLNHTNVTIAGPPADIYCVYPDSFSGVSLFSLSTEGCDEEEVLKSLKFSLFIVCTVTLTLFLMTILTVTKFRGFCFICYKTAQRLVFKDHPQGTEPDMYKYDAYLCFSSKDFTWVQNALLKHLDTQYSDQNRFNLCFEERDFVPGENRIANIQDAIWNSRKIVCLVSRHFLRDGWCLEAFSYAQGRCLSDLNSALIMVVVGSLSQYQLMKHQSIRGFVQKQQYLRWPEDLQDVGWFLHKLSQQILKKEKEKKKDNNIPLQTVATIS

B1: wild-type flagellin (eukFlaB) expressed in Expi293 cells (ligand)
chain: AVNVNTNVAAMTAQRYLNNANSAQQTSMERLSSGFKINSAKDDAAGLQISNRLNVQSRGLDVAVRNANDGISIAQTAEGAMNETTNILQRMRDLSLQSANGSNSKSERVAIQEEVTALNDELNRIAETTSFGGNKLLNGTYGTKAMQIGADNGEAVMLSLKDMRSDNVMMGGVSYQAEEGKDKNWNVAAGDNDLTIALTDSFGNEQEIEINAKAGDDIEELATYINGQTDLVKASVGEGGKLQIFAGNNKVQGEIAFSGSLAGELGLGEGKNVTVDTIDVTTVQGAQESVAIVDAALKYVDSHRAELGAFQNRFNHAISNLDNINENVNASKSRIKDTDFAKETTQLTKTQILSQASSSILAQAKQAPNSALSLLG
modifications: N-glycosylated by expression in Expi293 cells; five putative sites predicted at N83, N101, N139, N273, N330
notes: Secreted through the IgK leader of pSectag2B; also called glycosylated-eFlaB; eukaryotic-expressed wild-type flagellin; not shown: C-terminal Myc tag (and His tag implied by Ni-NTA purification) from vector pSectag2B
- binding result: no binding
